In the assay the target is alpha-subunit of the stimulatory G protein (Gs), mouse (mouse, UniProt P63094). As to the kind of experiment: cell-based or functional assay.

B1: Cholera toxin from Vibrio Cholerae (other)
chain: NDDKLYRADSRPPDEIKQSGGLMPRGQSEYFDRGTQMNINLYDHARGTQTGFVRHDDGYVSTSISLRSAHLVGQTILSGHSTYYIYVIATAPNMFNVNDVLGAYSPHPDEQEVSALGGIPYSQIYGWYRVHFGVLDEQLHRNRGYRDRYYSNLDIAPAADGYGLAGFPPEHRAWREEPWIHHAPPGCGNAPRSSMSNTCDEKTQSLGVKFLDEYQSKVKRQIFSGYQSDIDTHNRIKDEL
Regarding B1, the “cAMP, fold induction over vehicle, adult mouse neural stem cells” value amounted to 3.1 fold induction.

Values taken from US20050009847A1, “Compounds and methods for increasing neurogenesis” (published 2005).
